The results in this text go back to patent US6365161.

A value given as a limit tells only on which side of the number the result lay.

For experiment [1], the target named is soluble fusion protein consisting of the extracellular domain of human FcγRI and human IgM heavy chain (sFcγRI-µ) (human) (UniProt P12314). Kind of experiment: ELISA on captured FcγRI/IgM heavy chain fusion protein, against a nonspecific human IgG1.
The target is the same in experiment [2]. In words: ELISA on captured FcγRI/IgM heavy chain fusion protein, in excess human IgG1.
Experiment [3] has as its target human FcγRI (CD64) on cells (human) (UniProt P12314). Kind of experiment: cell-based or functional assay.
The target is the same in experiment [4]. Kind of experiment: flow cytometry, fluorescein-conjugated antibody on peripheral blood monocytes.
Target sequence in this assay (P12314 16-374): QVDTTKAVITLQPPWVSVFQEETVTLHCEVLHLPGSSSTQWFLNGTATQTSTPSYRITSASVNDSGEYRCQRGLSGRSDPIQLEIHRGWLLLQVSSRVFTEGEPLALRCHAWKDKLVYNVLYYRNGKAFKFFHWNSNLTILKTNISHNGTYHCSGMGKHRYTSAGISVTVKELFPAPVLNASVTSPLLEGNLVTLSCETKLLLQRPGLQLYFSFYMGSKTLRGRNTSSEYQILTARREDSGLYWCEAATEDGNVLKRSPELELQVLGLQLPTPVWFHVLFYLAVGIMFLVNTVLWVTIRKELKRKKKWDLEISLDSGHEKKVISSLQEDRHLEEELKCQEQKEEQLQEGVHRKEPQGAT

soluble fusion protein consisting of the extracellular domain of human FcγRI and human IgM heavy chain (sFcγRI-µ) (human), sequence (P12314 other isoform, or with tags, fused parts or gaps limits assumed): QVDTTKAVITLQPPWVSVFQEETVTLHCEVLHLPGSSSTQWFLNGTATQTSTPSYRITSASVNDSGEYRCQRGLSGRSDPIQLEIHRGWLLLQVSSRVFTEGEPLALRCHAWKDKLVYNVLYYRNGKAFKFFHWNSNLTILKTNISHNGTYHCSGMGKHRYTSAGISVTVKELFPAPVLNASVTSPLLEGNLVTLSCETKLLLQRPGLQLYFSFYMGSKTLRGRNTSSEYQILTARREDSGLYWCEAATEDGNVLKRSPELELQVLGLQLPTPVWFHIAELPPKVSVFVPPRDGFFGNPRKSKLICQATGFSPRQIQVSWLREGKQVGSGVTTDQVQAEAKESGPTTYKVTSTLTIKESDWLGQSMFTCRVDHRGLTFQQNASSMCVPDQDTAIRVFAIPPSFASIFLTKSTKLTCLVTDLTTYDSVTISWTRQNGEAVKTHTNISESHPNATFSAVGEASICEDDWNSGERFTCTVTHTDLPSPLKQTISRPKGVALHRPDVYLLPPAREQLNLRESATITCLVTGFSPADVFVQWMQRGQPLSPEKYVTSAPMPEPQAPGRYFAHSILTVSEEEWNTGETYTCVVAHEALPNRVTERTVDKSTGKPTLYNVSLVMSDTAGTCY

“NEWM VH/REI Vκ humanized mAb 22 (antibody)” gave a percent of binding via the Fv portion in experiment [1] of more than 95%. In addition, in experiment [2], the fold lower affinity than the chimeric mAb came to 5 fold.

In the case of TsAb m22 Fab′x32.2 Fab′xm22 Fab′, the FcγRI expression on monocytes in whole blood (modulation assay) (% of the level prior to BsAb treatment) in experiment [3] was found to be 50.

Take “chemically linked M22 Fab′ multimer M22 F(ab′)3+”: the human CD64 surface expression on macrophages of human CD64-transgenic mice in experiment [3] was less than 50 % reduction.

Take “murine anti-FcγRI monoclonal antibody M22”: in experiment [4], the Antibody sites per cell (antibody sites per cell) came out at 10000.
